Test results from US11390653B2, “Amino acid-specific binder and selectively identifying an amino acid” (priority 2018, dated 2022).

B1: A. tumefaciens ClpS2 [Pro34 Arg35 Glu36] (protein)
chain: MGHHHHHHENLYFQGSDSPVDLKPKPKVKPKLERPKLYKVMLLNDDYTPREFVTVVLKAVFRMSEDTGRRVMMTAHRFGSAVVVVCERDIAETKAKEATDLGKEAGFPLMFTTEPEE
notes: wild-type Agrobacterium tumefaciens ClpS2, N-End Rule Pathway adaptor protein
B2: A. tumefaciens ClpS2 [Pro34 Met35 Ser36] (protein, listed as Escherichia coli)
chain: SDSPVDLKPKPKVKPKLERPKLYKVMLLNDDYTPMSFVTVVLKAVFRMSEDTGRRVMMTAHRFGSAVVVVCERDIAETKAKEATDLGKEAGFPLMFTTEPEE
notes: ClpS2 variant, native residues 34-36 ProArgGlu mutated to ProMetSer

Legend:
Format in all cases: binding
F1G2 peptide [1] = experiment: yeast/peptide colorimetric pull-down assay; conditions: yeast-displayed protein
Description: (§1) Incubation and wash steps were repeated.

Arg NAA peptide [2] = target: T1, Arg NAA peptide (Agrobacterium fabrum, UniProt Q8UD95); experiment: yeast/peptide colorimetric pull-down assay; design: factor Xa cleavage site (N); expressed in transfected cells; host or cells: Saccharomyces cerevisiae EBY100, pCTCON2; conditions: high concentrations used in the assay
Description: as §1

His NAA peptide [3] = target: T2, His NAA peptide (Agrobacterium fabrum, UniProt Q8UD95); experiment: yeast/peptide colorimetric pull-down assay; design: factor Xa cleavage site (N); expressed in transfected cells; host or cells: Saccharomyces cerevisiae EBY100, pCTCON2; conditions: high concentrations used in the assay
Description: as §1

Arg NAA peptide [4] = target: T1, Arg NAA peptide; experiment: flow cytometry of yeast displaying ClpS proteins; design: factor Xa cleavage site (N); expressed in transfected cells
Description: (§2) After two rounds of MACs selection, the library was sorted by flow cytometry. […] A typical reaction contained 100 μL of cells (containing approximately 10^6 cells), 10 μL of peptide at a concentration between 10 nM to 10 μM, and 25 μL of a master mix containing 2 μL of an anti-myc antibody, 4 μL of the SAPE (streptavidin, R-phycoerythrin conjugate—1 mg/mL) and 19 μL of PBS/BSA for each sample.
(§3) Cells were washed with PBS/BSA and sorted using a FACS Aria cytometer and collected in 1 mL of SD-CAA media. The number of cells that bound the peptide improved with each round and were sorted with sequentially lower concentrations of peptide to increase the stringency of the selection. […]
(§4) With regard to directed evolution of ClpS, random mutagenesis and screening was used to select proteins with higher affinity binding to the target NAA. In subsequent steps, specific residues were determined from initial screens with a targeted mutagenesis step. […] Using FACS, we assessed the affinity of each mutant for the N-terminal amino acid on the target peptide based on which quadrant the fluorescent signal fell into as shown in FIG. 15. […] If there is also a high fluorescence signal along the x-axis (streptavidin-PE) then the peptide is presumably bound to the protein variant, and the signal will appear in Q2. […]

His NAA peptide [5] = target: T2, His NAA peptide; experiment: flow cytometry of yeast displaying ClpS proteins; design: factor Xa cleavage site (N); expressed in transfected cells
Description: as §2, §3, §4

[6] = target: T3, full panel of 20 peptides containing different NAAs (Agrobacterium fabrum, UniProt Q8UD95); experiment: yeast/peptide colorimetric pull-down assay, full panel
T3 construct: factor Xa cleavage site (N); expressed in transfected cells; host or cells: Saccharomyces cerevisiae EBY100, pCTCON2
Description: as §1

Ile NAA peptide = target: T4, Ile NAA peptide (Agrobacterium fabrum, UniProt Q8UD95); experiment: yeast/peptide colorimetric pull-down assay
T4 construct: factor Xa cleavage site (N); expressed in transfected cells; host or cells: Saccharomyces cerevisiae EBY100, pCTCON2
Description: as §1

Met NAA peptide = target: T5, Met NAA peptide (Agrobacterium fabrum, UniProt Q8UD95); experiment: yeast/peptide colorimetric pull-down assay; conditions: high concentrations used in the assay
T5 construct: factor Xa cleavage site (N); expressed in transfected cells; host or cells: Saccharomyces cerevisiae EBY100, pCTCON2
Description: as §1

Lys NAA peptide = target: T6, Lys NAA peptide (Agrobacterium fabrum, UniProt Q8UD95); experiment: yeast/peptide colorimetric pull-down assay; conditions: high concentrations used in the assay
T6 construct: factor Xa cleavage site (N); expressed in transfected cells; host or cells: Saccharomyces cerevisiae EBY100, pCTCON2
Description: as §1

Ala NAA peptide = target: T7, Ala NAA peptide (Agrobacterium fabrum, UniProt Q8UD95); experiment: yeast/peptide colorimetric pull-down assay
T7 construct: factor Xa cleavage site (N); expressed in transfected cells; host or cells: Saccharomyces cerevisiae EBY100, pCTCON2
Description: as §1

Val NAA peptide = target: T8, Val NAA peptide (Agrobacterium fabrum, UniProt Q8UD95); experiment: yeast/peptide colorimetric pull-down assay
T8 construct: factor Xa cleavage site (N); expressed in transfected cells; host or cells: Saccharomyces cerevisiae EBY100, pCTCON2
Description: as §1

Leu NAA peptide = experiment: yeast/peptide colorimetric pull-down assay; conditions: yeast-displayed protein
Description: as §1

Y1G2 peptide = experiment: SPR, peptide on streptavidin chip, ClpS2 variant protein in solution; conditions: for KOFF Tyr: from SPR dissociation curves; for Selectivity for Tyr, Tyr/Phe / Selectivity for Tyr, Tyr/Trp / Selectivity for Tyr, Tyr/Tyr: relative specificity factor, ratio of binding affinities; for Kd: steady state, peptide on surface, 0 to 50 μM protein, read-out: KD Tyr
Description: (§5) With regard to surface plasmon resonance (SPR), SPR data was collected by loading a streptavidin chip with the target biotinylated peptides in each of the four channels, and then flowing the protein over the chip at each concentration for 180 seconds before washing with 50 mM Tris-HCl, pH 8.0, 300 mM NaCl, 1 mM DTT, 5% glycerol buffer for 180 seconds. […] The four channels were used such that the negative control peptide (A1G2) was in channel 1, F1G2 in channel 2, W1G2 in channel 3, and Y1G2 in channel 4. The negative control peptide channel was used as a baseline for subtraction, which accommodates both any non-specific binding and refractive index change. A steady state response at each concentration was plotted and fit to calculate the KD, while the resonance units vs. time was used to calculate a koff for each mutant protein with each peptide.
(§6) Regarding characterization of the ClpS mutant protein binding kinetics, for peptide sequencing via some recently proposed methods reagents can bind peptides affixed to a surface. Two A. tumefaciens ClpS2 protein variants (V2, described above, and V1) were expressed and purified from E. coli. […] The binding properties of each variant were analyzed using surface plasmon resonance (SPR).

F1G2 peptide [7] = experiment: as above; conditions: for specificity between N-terminal Phe and Trp, in words: from SPR binding data; for KOFF Phe: from SPR dissociation curves; for Selectivity for Phe, Phe/Phe / Selectivity for Phe, Phe/Trp / Selectivity for Phe, Phe/Tyr: relative specificity factor, ratio of binding affinities; for Kd: steady state, peptide on surface, 0 to 50 μM protein, read-out: KD Phe
Description: as §5, §6

W1G2 peptide = conditions: for KOFF Trp: from SPR dissociation curves; for Selectivity for Trp, Trp/Phe / Selectivity for Trp, Trp/Trp / Selectivity for Trp, Trp/Tyr: relative specificity factor, ratio of binding affinities; for Kd: steady state, peptide on surface, 0 to 50 μM protein, read-out: KD Trp
Description: as §5, §6

Row | Molecule | KOFF Tyr (Y1G2 peptide) [s⁻¹] | Selectivity for Tyr, Tyr/Phe (Y1G2 peptide) | Selectivity for Tyr, Tyr/Trp (Y1G2 peptide) | Selectivity for Tyr, Tyr/Tyr (Y1G2 peptide) | Kd (Y1G2 peptide) [µM] | specificity between N-terminal Phe and Trp, in words (F1G2 peptide [7]) | KOFF Phe (F1G2 peptide [7]) [s⁻¹] | Selectivity for Phe, Phe/Phe (F1G2 peptide [7]) | Selectivity for Phe, Phe/Trp (F1G2 peptide [7]) | Selectivity for Phe, Phe/Tyr (F1G2 peptide [7]) | Kd (F1G2 peptide [7]) [µM] | KOFF Trp (W1G2 peptide) [s⁻¹] | Selectivity for Trp, Trp/Phe (W1G2 peptide) | Selectivity for Trp, Trp/Trp (W1G2 peptide) | Selectivity for Trp, Trp/Tyr (W1G2 peptide) | Kd (W1G2 peptide) [µM] | further results
1 | A. tumefaciens ClpS2 [Variant V3, A. tumefaciens ClpS2 [Cys34 Ser35 Trp36]] | – | – | – | – | – | – | – | – | – | – | – | – | – | – | – | – | affinity for F1G2 peptide compared to wild-type (F1G2 peptide [1]): increased affinity; selectivity towards F1G2 peptide compared to other NAAs (F1G2 peptide [1]): higher selectivity
2 | B1 | 1.16 | 4.86 | 3.43 | 1.0 | 63 ± 4 | modest specificity for N-terminal Phe | 0.93 | 1.0 | 0.71 | 0.21 | 13 ± 0.6 | 1.32 | 1.42 | 1.0 | 0.29 | 18.4 ± 0.4 | binding to Arg (Arg NAA peptide [2]): some binding activity; binding to His (His NAA peptide [3]): some binding activity; binding to Arg (Arg NAA peptide [4]): confirmed; binding to His (His NAA peptide [5]): confirmed; binding to the remaining amino acids [6]: non-binding; binding to Ile (Ile NAA peptide): does bind; binding to Met (Met NAA peptide): some binding activity; binding to Lys (Lys NAA peptide): some binding activity; binding to Ala (Ala NAA peptide): lack of binding; binding to Val (Val NAA peptide): lack of binding; binding to Leu (Leu NAA peptide): does not bind
3 | B2 | 0.5 | 6.43 | 0.88 | 1.0 | 11.6 ± 1.2 | more specific for N-terminal Trp than for Phe | 0.1 | 1.0 | 0.14 | 0.16 | 1.8 ± 0.4 | 0.76 | 7.28 | 1.0 | 1.13 | 13.1 ± 1.3 | improvement in affinity for Y1G2 compared to wild-type (Y1G2 peptide; SPR): 5.5 fold; dissociation rate slowed over wild-type, Phe (F1G2 peptide [7]; SPR): 9.4 fold; improvement in KD/affinity for Phe peptide compared to wild-type (F1G2 peptide [7]; SPR): 7.2 fold; improvement in KD/affinity for Phe peptide compared to wild-type (F1G2 peptide [7]; SPR, listed as ProMetSer variant): 7 fold; affinity for N-terminal Trp relative to wild-type, in words (W1G2 peptide; in vitro surface binding assays / SPR): little change
